This is an account of results in patent US20190032056A1 (VITRISA THERAPEUTICS, published 2019).

The assay deals with complement Factor D present in C1q-depleted human serum (human, UniProt P00746 26-253). The experiment in a line: cell-based or functional assay.
Chain of complement Factor D present in C1q-depleted human serum (P00746 26-253 limits assumed): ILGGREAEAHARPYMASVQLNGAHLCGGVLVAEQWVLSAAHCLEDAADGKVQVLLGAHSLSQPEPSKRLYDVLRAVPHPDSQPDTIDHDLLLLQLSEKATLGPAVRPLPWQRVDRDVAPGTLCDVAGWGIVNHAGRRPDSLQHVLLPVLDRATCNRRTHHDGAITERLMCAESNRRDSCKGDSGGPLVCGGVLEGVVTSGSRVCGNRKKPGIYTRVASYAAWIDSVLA

B1: anti-fD Fab with an amino acid sequence of heavy chain variable region according to SEQ ID NO:7 and light chain variable region according to SEQ ID NO:8 (Fab)
heavy: EVQLVQSGPELKKPGASVKVSCKASGYTFTNYGMNWVRQAPGQGLEWMGWINTYTGETTYADDFKGRFVFSLDTSVSTAYLQISSLKAEDTAVYYCERGGVNNWGQGTLVTVSSASTKGPSVFPLAPSSKSTSGGTAALGCLVKDYFPEPVTVSWNSGALTSGVHTFPAVLQSSGLYSLSSVVTVPSSSLGTQTYICNVNHKPSNTKVDKKVEPKSCDKTHT
light: DIQVTQSPSSLSASVGDRVTITCITSTDIDDDMNWYQQKPGKVPKLLISGGNTLRPGVPSRFSGSGSGTDFTLTISSLQPEDVATYYCLQSDSLPYTFGQGTKVEIKRTVAAPSVFIFPPSDEQLKSGTASVVCLLNNFYPREAKVQWKVDNALQSGNSQESVTEQDSKDSTYSLSSTLTLSKADYEKHKVYACEVTHQGLSSPVTKSFNRGEC
On to B1, for which the “IC50 inhibiting alternative complement in human serum (fD-dependent lysis of rabbit red blood cells)” value turned out to be 3.3 nM.
